B3: MED28 (natural protein, mouse (Mus musculus; endogenous in CH12), UniProt Q920D3 1-178, looked up)
chain: MAASLGGMFTGQPPGPPPPPPGLPGQASLLQAAPGAPRPSNSTLVDELESSFEACFASLVSQDYVNGTDQEEIRTGVDQCIQKFLDIARQTECFFLQKRLQLSVQKPDQVIKEDVSELRSELQRKDALVQKHLTKLRHWQQVLEDINVQHKKPADMPQGSLAFLEQASANIPAPLKQT
notes: MED28, Mus musculus, endogenous upper Tail subunit of Mediator; source: endogenous, CH12 mouse B lymphoma nuclear extract; immunopurified as part of Mediator (FLAG M2 agarose, FLAG peptide elution)
B5: MED30 (natural protein, mouse (Mus musculus; endogenous in CH12), UniProt Q9CQI9 1-178, looked up)
chain: MSTPPLAPTGMASGPFGGPQAQQAAREVNTATLCRIGQETVQDIVYRTMEIFQLLRNMQLPNGVTYHTGTYQDRLTKLQDHLRQLSILFRKLRLVYDKCNENCGGMDPIPVEQLIPYVDEDGSKNDDRAGPPRFASEERREIVEVNKKLKQKNQQLKQIMDQLRNLIWDINAMLAMRN
notes: MED30, Mus musculus, endogenous upper Tail subunit of Mediator; source: endogenous, CH12 mouse B lymphoma nuclear extract; immunopurified as part of Mediator (FLAG M2 agarose, FLAG peptide elution)

Legend:
Experiment in all cases: cryo-EM structure; endogenous mouse Mediator immunopurified from CH12 nuclear extract through 3×FLAG-MED19 or 3×FLAG-MED25; eluted in 50 mM HEPES pH 7.9, 100 mM KCl, 5% glycerol, 1 mM EDTA, 0.005% NP-40; map at 4.0 Å overall, focused refinement of the MED1 and knob/hook ends (6-10 Å)
Conditions in all cases: both partners purified
[1] = target: T1, MED1 (mouse (Mus musculus; endogenous in CH12), UniProt Q925J9 1-1575)
T1 construct: MED1, Mus musculus, endogenous Middle module subunit of Mediator; only a partial model of the folded N-terminal portion was built; Partial model only; this part of the map is at about 6-8 Å; also called Mediator subunit MED1; source: endogenous, CH12 mouse B lymphoma nuclear extract; immunopurified as part of Mediator (FLAG M2 agarose, FLAG peptide elution)
T1 sequence (Q925J9 whole entry): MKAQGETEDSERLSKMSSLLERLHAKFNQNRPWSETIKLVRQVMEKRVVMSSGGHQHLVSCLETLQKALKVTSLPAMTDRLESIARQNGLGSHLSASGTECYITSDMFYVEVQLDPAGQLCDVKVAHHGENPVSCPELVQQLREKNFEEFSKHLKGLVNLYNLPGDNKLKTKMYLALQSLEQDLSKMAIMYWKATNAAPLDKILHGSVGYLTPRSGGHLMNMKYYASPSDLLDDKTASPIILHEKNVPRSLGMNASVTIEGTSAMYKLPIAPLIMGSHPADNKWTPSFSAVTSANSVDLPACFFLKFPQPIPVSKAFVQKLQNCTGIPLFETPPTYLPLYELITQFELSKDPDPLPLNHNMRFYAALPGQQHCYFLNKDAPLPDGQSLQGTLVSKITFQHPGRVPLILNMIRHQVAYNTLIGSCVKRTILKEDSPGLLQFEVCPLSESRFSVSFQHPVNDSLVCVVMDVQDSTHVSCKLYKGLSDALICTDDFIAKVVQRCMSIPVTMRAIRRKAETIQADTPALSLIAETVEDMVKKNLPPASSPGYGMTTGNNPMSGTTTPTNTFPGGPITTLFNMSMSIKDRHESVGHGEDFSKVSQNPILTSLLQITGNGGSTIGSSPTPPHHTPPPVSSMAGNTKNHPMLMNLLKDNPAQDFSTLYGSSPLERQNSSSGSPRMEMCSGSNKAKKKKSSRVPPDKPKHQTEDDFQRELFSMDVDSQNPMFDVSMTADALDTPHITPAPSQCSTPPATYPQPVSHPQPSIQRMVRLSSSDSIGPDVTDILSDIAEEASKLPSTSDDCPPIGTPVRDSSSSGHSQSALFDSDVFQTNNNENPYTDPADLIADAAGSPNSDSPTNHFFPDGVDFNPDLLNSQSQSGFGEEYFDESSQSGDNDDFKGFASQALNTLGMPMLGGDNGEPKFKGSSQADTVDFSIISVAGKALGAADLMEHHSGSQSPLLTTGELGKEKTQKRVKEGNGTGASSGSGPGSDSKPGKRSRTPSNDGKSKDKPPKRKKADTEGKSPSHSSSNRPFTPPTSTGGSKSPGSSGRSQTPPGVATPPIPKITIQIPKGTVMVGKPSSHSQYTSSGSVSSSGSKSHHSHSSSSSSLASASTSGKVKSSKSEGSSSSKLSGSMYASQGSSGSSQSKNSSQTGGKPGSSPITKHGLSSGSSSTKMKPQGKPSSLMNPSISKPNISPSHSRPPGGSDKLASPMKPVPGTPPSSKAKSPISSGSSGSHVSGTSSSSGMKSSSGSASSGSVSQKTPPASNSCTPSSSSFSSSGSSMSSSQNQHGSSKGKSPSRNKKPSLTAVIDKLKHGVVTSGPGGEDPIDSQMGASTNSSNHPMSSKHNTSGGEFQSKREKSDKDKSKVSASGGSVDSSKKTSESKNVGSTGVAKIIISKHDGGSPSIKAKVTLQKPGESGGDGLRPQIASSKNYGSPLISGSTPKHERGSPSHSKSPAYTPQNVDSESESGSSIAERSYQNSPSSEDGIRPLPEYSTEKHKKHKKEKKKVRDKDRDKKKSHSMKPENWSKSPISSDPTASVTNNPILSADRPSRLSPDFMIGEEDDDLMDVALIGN

[2] = target: T2, MED22 (mouse (Mus musculus; endogenous in CH12), UniProt Q62276 1-200)
T2 construct: MED22, Mus musculus, endogenous Head module subunit of Mediator; source: endogenous, CH12 mouse B lymphoma nuclear extract; immunopurified as part of Mediator (FLAG M2 agarose, FLAG peptide elution)
T2 sequence (looked up): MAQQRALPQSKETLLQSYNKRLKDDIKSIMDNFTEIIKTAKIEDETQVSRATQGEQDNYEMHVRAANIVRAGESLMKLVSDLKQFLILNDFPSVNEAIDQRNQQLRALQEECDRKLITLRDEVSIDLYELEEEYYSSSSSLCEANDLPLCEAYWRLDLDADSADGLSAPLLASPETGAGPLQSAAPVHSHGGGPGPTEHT

[3] = target: B3
[4] = target: B5
[5] = target: T3, MED17 (mouse (Mus musculus; endogenous in CH12), UniProt Q8VCD5 1-649)
T3 construct: MED17, Mus musculus, endogenous Head module scaffold subunit of Mediator; source: endogenous, CH12 mouse B lymphoma nuclear extract; immunopurified as part of Mediator (FLAG M2 agarose, FLAG peptide elution)
T3 sequence (looked up): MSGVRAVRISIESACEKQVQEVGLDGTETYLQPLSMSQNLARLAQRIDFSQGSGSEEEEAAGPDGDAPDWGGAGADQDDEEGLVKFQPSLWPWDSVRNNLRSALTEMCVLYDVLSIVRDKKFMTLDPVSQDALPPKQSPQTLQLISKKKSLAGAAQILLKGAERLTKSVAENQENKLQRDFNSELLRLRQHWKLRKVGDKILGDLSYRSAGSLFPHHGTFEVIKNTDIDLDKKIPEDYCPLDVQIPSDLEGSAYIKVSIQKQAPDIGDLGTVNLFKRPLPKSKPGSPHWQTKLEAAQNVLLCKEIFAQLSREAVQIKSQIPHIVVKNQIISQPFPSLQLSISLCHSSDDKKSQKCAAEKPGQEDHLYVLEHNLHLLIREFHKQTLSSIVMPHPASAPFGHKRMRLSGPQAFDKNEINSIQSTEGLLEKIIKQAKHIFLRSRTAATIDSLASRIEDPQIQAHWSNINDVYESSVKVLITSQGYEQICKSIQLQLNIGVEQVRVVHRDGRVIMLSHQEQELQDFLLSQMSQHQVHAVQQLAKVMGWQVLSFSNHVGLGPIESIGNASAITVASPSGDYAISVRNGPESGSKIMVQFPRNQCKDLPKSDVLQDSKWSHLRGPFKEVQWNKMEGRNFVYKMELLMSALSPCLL

[6] = target: T4, MED27 (mouse (Mus musculus; endogenous in CH12), UniProt Q9DB40 1-311)
T4 construct: MED27, Mus musculus, endogenous upper Tail subunit of Mediator; source: endogenous, CH12 mouse B lymphoma nuclear extract; immunopurified as part of Mediator (FLAG M2 agarose, FLAG peptide elution)
T4 sequence (looked up): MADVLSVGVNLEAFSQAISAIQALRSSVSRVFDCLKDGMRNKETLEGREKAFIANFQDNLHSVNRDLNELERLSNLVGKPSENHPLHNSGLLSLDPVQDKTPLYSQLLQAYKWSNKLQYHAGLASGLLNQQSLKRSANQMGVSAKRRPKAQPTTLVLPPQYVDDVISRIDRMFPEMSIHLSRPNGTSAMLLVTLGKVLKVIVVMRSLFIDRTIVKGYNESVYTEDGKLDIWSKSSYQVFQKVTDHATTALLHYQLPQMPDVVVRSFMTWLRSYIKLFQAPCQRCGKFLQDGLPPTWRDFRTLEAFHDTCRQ

[7] = target: T5, MED29 (mouse (Mus musculus; endogenous in CH12), UniProt Q9DB91 1-199)
T5 construct: MED29, Mus musculus, endogenous upper Tail subunit of Mediator; source: endogenous, CH12 mouse B lymphoma nuclear extract; immunopurified as part of Mediator (FLAG M2 agarose, FLAG peptide elution)
T5 sequence (looked up): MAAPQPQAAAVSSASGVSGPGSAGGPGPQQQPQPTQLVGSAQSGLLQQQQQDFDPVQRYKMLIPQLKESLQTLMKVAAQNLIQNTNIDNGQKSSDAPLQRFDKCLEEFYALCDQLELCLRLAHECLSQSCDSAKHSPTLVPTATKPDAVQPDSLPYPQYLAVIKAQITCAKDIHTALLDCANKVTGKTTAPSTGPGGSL

Measured: binding result

B1: MED4 (natural protein, mouse (Mus musculus; endogenous in CH12), UniProt Q9CQA5 1-270, looked up)
chain: MAASSSGEKEKERMGGVSGMAGLGSTRERLLSALEDLEVLSRELIEMLAISRNQKLLQLEEENQVLELLIHRDGDFQELMKLALNQGKVHHEMQALEKEVEKRDSDIQQLQKQLKEAEQILATAVYQAKEKLKSIEKARKGAISSEEIIKYAHRISASNAVCAPLTWVPGDPRRPYPTDLEMRSGLLGQMNNPSTSGVNGHLPGDALAAGRLPDVLAPQYPWQSNDMSVNMLPPNHSSDFLLEPPGHNKENEDDVEVMSTDSSSSSSDSD
notes: MED4, Mus musculus, endogenous Middle module subunit of Mediator; source: endogenous, CH12 mouse B lymphoma nuclear extract; immunopurified as part of Mediator (FLAG M2 agarose, FLAG peptide elution)
binds: [1]

B2: MED11 (natural protein, mouse (Mus musculus; endogenous in CH12), UniProt Q9D8C6 1-117, looked up)
chain: MATYSLANERLRALEDIEREIGAILQNAGTAILELSKEKTNERLLDRQAAAFTTSVQHVEAELSAQIRYLTQVATGQPHEGSSYSSRKDCQMALKRVDYARLKISDVARTCEQMLEN
notes: MED11, Mus musculus, endogenous Head module subunit of Mediator; source: endogenous, CH12 mouse B lymphoma nuclear extract; immunopurified as part of Mediator (FLAG M2 agarose, FLAG peptide elution)
binds: [2] | [3] | [4] | [5]

B3
not listed: [1] | [3]
binds: all other assays above

B4: MED24 (natural protein, mouse (Mus musculus; endogenous in CH12), UniProt Q99K74 1-987, looked up)
chain: MKVVNLKQAILQAWKERWSDYQWAINMKKFFPKGATWDILNLAEALLEQAMIGPSPNPLILSYLKYAISSQMVSCSSVLTAISKFDDFSRDLCVQALLDIMDMFCDRLSCHGKAEECIGLCRALLSALHWLLRCTAASAERLQEGLEAGTPAPGEKQLALCLQCLEKTLSSTKNRALLHIAKLEEASSWTAIEHSLLKLGEILANLSNPQLRSQAERCGTLIRSIPSMLSVHSEQLHKTGFPTIHALILLEGTMNLTGEMQPLVEQLMMVKRMQHIPTPLFVLEIWKACFVGLIESPEGTQELKWTAFTYLKIPQVLVKLKKYFHGEKDFTEDVNCAFEFLLKLTPLLDKADQRCNCDCTNFLLQECNKQGLLSEVNFASLVGKRTADRDPQLKSSENANIQPNPGLILRAEPTVTNILKTMDADHSKSPEGLLGVLGHMLSGKSLDLLLAAAAATGKLKSFARKFINLNEFTTHGSGESTKTASVRALLFDISFLMLCHVAQTYGSEVILSESSSGEEVPFFETWMQTCMPEEGKILNPDHPCFRPDSTKVESLVALLNNSSEMKLVQMKWHEACLSISAAILEILNAWENGVLAFESIQKITDNIKGKVCSLAVCAVAWLVAHVRMLGLDEREKSLQMIRQLAGPLYSENTLQFYNERVVIMNSILEHMCADVLQQTATQIKFPSTGVDTMPYWNLLPPKRPIKEVLTDIFAKVLEKGWVDSRSIHILDTLLHMGGVYWFCNNLIKELLKETRKEHTLRAVQLLYSIFCLDMQQVTLVLLGHILPGLLTDSSKWHSLMDPPGTALAKLAVWCALSSYSSHKGQASSRQKKRHREDIEDYVSLFPVEDMQPSKLMRLLSSSDDDANILSSPTDRSMNSSLSASQLHTVNMRDPLNRVLANLFLLISSILGSRTAGPHTQFVQWFMEECVGCLEQDSRGSILQFMPFTTVSELVKVSAMSSPKVVLAITDLSLPLGRQVAAKAIAAL
notes: MED24, Mus musculus, endogenous lower Tail subunit of Mediator; source: endogenous, CH12 mouse B lymphoma nuclear extract; immunopurified as part of Mediator (FLAG M2 agarose, FLAG peptide elution)
binds: [1]

B5
binds: [2] | [6] | [7] | [5]

Reference: paper PMC7921410, “Structure of mammalian Mediator complex reveals Tail module architecture and interaction with a conserved core” (Nature Communications, 2021)
